# Source: IntAct's records for PubMed 11494128
# B1: Ephrin type-B receptor 2 (Gallus gallus (Chicken)), P28693 (parent)
# chain: MGPLWFCCLPLALLPLLAAVEETLMDSTTATAELGWMVHPPSGWEEVSGYDENMNTIRTYQVCNVFESSQNNWLRTKYIRRRGAHRIHVEMKFSVRDCSSIPNVPGSCKETFNLYYYESDFDSATKTFPNWMENPWMKVDTIAADESFSQVDLGGRVMKINTEVRSFGPVSKNGFYLAFQDYGGCMSLIAVRVFYRKCPRVIQNGAVFQETLSGAESTSLVAARGTCISNAEEVDVPIKLYCNGDGEWLVPIGRCMCRPGYESVENGTVCRGCPSGTFKASQGDEGCVHCPINSRTTSEGATNCVCRNGYYRADADPVDMPCTTIPSAPQAVISSVNETSLMLEWTPPRDSGGREDLVYNIICKSCGSGRGACTRCGDNVQFAPRQLGLTEPRIYISDLLAHTQYTFEIQAVNGVTDQSPFSPQFASVNITTNQAAPSAVSIMHQVSRTVDSITLSWSQPDQPNGVILDYELQYYEKNLSELNSTAVKSPTNTVTVQNLKAGTIYVFQVRARTVAGYGRYSGKMYFQTMTEAEYQTSVQEKLPLIIGSSAAGLVFLIAVVVIIIVCNRRRGFERADSEYTDKLQHYTSGHSTYRGPPPGLGVRLFVMTPGMKIYIDPFTYEDPNEAVREFAKEIDISCVKIEQVIGAGEFGEVCSGHLKLPGKREIFVAIKTLKSGYTEKQRRDFLSEASIMGQFDHPNVIHLEGVVTKSSPVMIITEFMENGSLDSFLRQNDGQFTVIQLVGMLRGIAAGMKYLADMNYVHRDLAARNILVNSNLVCKVSDFGLSRFLEDDTSDPTYTSALGGKIPIRWTAPEAIQYRKFTSASDVWSYGIVMWEVMSYGERPYWDMTNQDVINAIEQDYRLPPPMDCPNALHQLMLDCWQKDRNHRPKFGQIVNTLDKMIRNPNSLKAMAPLSSGVNLPLLDRTIPDYTSFNTVDEWLDAIKMSQYKESFASAGFTTFDIVSQMTVEDILRVGVTLAGHQKKILNSIQVMRAQMNQIQSVEV
# Variants of: B1
# Conditions: with abl1_mouse Abl1, P00520
# abl1_mouse Abl1, P00520, sequence (P00520 whole entry): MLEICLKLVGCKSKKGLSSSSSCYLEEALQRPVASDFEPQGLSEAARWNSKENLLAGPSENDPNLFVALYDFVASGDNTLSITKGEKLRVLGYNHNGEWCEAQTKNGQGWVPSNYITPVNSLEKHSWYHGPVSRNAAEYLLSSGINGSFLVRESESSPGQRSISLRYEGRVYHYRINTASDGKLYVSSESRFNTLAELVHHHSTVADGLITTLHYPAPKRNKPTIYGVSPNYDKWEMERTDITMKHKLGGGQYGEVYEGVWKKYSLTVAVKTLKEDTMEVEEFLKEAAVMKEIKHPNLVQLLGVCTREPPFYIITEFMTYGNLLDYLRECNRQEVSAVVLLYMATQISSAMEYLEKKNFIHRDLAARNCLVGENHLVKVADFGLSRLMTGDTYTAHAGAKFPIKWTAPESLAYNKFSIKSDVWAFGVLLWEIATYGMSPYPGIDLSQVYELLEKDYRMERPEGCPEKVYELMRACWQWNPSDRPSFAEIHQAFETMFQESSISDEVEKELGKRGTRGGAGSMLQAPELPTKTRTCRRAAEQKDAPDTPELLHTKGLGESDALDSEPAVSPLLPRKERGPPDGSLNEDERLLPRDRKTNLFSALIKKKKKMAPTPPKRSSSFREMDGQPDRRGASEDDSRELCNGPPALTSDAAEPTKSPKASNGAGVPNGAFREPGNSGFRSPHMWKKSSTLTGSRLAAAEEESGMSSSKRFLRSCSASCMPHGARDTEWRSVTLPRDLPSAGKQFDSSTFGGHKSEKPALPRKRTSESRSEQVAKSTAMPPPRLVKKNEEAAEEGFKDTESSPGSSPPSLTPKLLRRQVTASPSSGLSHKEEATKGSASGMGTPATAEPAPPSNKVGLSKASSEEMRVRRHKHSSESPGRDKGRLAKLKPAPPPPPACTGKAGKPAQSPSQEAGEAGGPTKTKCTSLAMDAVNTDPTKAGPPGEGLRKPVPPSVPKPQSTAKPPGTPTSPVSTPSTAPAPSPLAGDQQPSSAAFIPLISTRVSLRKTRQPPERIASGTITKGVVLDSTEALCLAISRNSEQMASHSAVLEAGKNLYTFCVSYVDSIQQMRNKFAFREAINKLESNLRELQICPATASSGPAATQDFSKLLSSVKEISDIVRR
row,Variant,effect of a mutation on the interaction
1,Y614E;Y620E,decreasing interaction strength

# Variants of: B1
# Conditions: with abl1_mouse Abl1, P00520
# Remark: another data set of the same source
row,Variant,effect of a mutation on the interaction
1,Y614E;Y620E,disrupting interaction strength
2,Y614E,decreasing interaction strength
3,Y620E,decreasing interaction strength
